5 variants from paper PMC11791182, “Molecular mechanism targeting condensin for chromosome condensation” (The EMBO Journal, 2024) can be followed below.

Sequences and labels used below:
B1: GFP-Sgo1 (472-530) [S. cerevisiae] / Ycg1 (6–932, Δ499–555)-Brn1 (384–529) [S. cerevisiae] (parent complex)
chain 1: KNEKKLTSNNSPKKSSPLLDITNKSENKKKSTRTKKLFKNAIVNNLSDENSTTRPSKSS
chain 2: GIDINTKIFNSVAEVFQKAQGSYAGHRKHIAVLKKIQSKAVEQGYEDAFNFWFDKLVTKILPLKKNEIIGDRIVKLVAAFIASLERELILAKKQNYKLTNDEEGIFSRFVDQFIRHVLRGVESPDKNVRFRVLQLLAVIMDNIGEIDESLFNLLILSLNKRIYDREPTVRIQAVFCLTKFQDEEQTEHLTELSDNEENFEATRTLVASIQNDPSAEVRRAAMLNLINDNNTRPYILERARDVNIVNRRLVYSRILKSMGRKCFDDIEPHIFDQLIEWGLEDRELSVRNACKRLIAHDWLNALDGDLIELLEKLDVSRSSVCVKAIEALFQSRPDILSKIKFPESIWKDFTVEIAFLFRAIYLYCLDNNITEMLEENFPEASKLSEHLNHYILLRYHHNDISNDSQSHFDYNTLEFIIEQLSIAAERYDYSDEVGRRSMLTVVRNMLALTTLSEPLIKIGIRVMKSLSINEKDFVTMAIEIINDIRDDDIEKQESESDIINNLPPEKEASSATIVLCLTRSSYMLELVNTPLTENILIASLMDTLITPAVRNTAPNIRELGVKNLGLCCLLDVKLAIDNMYILGMCVSKGNASLKYIALQVIVDIFSVHGNTVVDGEGKVDSISLHKIFYKVLKNNGLPECQVIAAEGLCKLFLADVFTDDDLFETLVLSYFSPINSSNEALVQAFAFCIPVYCFSHPAHQQRMSRTAADILLRLCVLWDDLQSSVIPEVDREAMLKPNIIFQQLLFWTDPRNLVNQTGSTKKDTVQLTFLIDVLKIYAQIEKKEIKKMIITNINAIFLSSEQDYSTLKELLEYSDDIAENDNLDNVSKNALDKLRNNLNSLIEEINERSETQTKDENNTANDQYSSILGN
chain 3: SIFEKDLMAYFDENLNRNWRGREHWKVRNFKKANLVNKESDLLEETRTTIGDTTDKNTTDDKSMDTKKKHKQKKVLEIDFFKTDDSFEDKVFASKGRTKIDMPIKNRKNDTHYLLPDDFHFSTDRITRLFIKPGQKMSLFSHRKHT

The variants in this test derive from B1. As to the kind of experiment: co-immunoprecipitation (anti-GFP-coupled beads), silver-stained SDS-PAGE band quantification; 25 mM HEPES pH 7.5, 500 mM NaCl, 10% glycerol, 1 mM DTT, 0.1% NP-40; 2.5 h incubation; parent: 1; read off a plot.
As to chain 1 L37E, chain 1 F38E, chain 1 I42E, chain 1 V43E, chain 1 L46E, the ratio to parent is about 0.84.

For chain 1 L46E, the ratio to parent was about 0.66.

For chain 1 L37E, chain 1 F38E, chain 1 I42E, chain 1 V43E, the ratio to parent was about 0.54.

Regarding chain 1 L37E, chain 1 F38E, the ratio to parent is about 0.37.

Consider chain 1 I42E, chain 1 V43E, for which the ratio to parent is about 0.51.
